Test results from patent publication US20240076663A1, “PEPTIDE-NUCLEIC ACID COMPLEX HAVING BLOOD-BRAIN BARRIER PENETRATION ABILITY AND COMPOSITION COMPRISING SAME” (SEASUN THERAPEUTICS, INC, priority 2019, published 2024).
Entries after “also recorded” stand apart in the source; their conditions may differ.

What was measured:
[1] = general knowledge stated in the patent; cited from earlier work
[2] = Blood-brain barrier permeability of the nucleic acid complex in a mouse model (cy3 fluorescence in brain tissue, confocal microscopy); type: in vivo; conditions: ICR mice, 20 mg/kg caudal vein; for distribution of fluorescence expression among brain regions: 20 mg/kg
Description: In order to confirm the blood-brain barrier permeability of the nucleic acid complex, 6-week-old male ICR mice (OrientBio, Korea) were purchased and acclimatized for a week, after which 20 mg/kg (n=6) of the nucleic acid complex was administered to the caudal veins thereof. In a positive control group (n=6), fluorescent-material-labeled methotrexate was administered to the caudal veins, and in a negative control group (n=6), DMSO at the same concentration as in the experimental group was diluted with saline and administered via the same route.
The mouse model was anesthetized by intraperitoneal administration of Avertin (5 mg/kg), followed by washing and fixing of the brain tissue through perfusion with saline and 4% paraformaldehyde. The fixed brain tissue was separated and dehydrated by placing the same in 30% sugar water for 24 hours, after which an embedding process was performed using OCT. The entire region of the brain tissue was cryosectioned into 30 μm sections. In order to observe the entire brain tissue from the cerebral cortex to the brainstem, the tissues were broadly separated into a total of six regions, namely the prefrontal cortex, lateral ventricle, paraventricular nucleus, hippocampus, midbrain, and cerebellum, and mounted on slide glasses, and the nuclei were stained with DAPI for 15 minutes and then analyzed using a confocal microscope.
Therefore, in order to determine whether the administered material spreads through the present system, the brain tissue was classified into six major regions from the front to the back and analyzed. In addition, in order to observe the extent of spreading over time, the groups were separately observed on day 1 and day 3, and the numerical values thereof were analyzed.
Then, for all experimental groups to which the nucleic acid complex was administered, the distribution of fluorescence in tissues depending on the administration date was numerically analyzed, and the distribution of fluorescence expression in each tissue of the brain after administration of the nucleic acid complex was compared.

Compound | blood-brain barrier crossing (known) [1] | bioavailability (known) [1] | fluorescence expression by cy3 in brain tissue (confocal microscopy) ([2]; FIG. 1, versus group given only methotrexate) | fluorescence expression, day 3 versus day 1 ([2]; all brain tissue regions) | distribution of fluorescence expression among brain regions ([2]; day 1) | distribution of fluorescence expression among brain regions ([2]; day 3)
O=C(O)CCCc1ccc(N(CCCl)CCCl)cc1 [Chlorambucil] | incapable of crossing the blood-brain barrier | – | – | – | – | –
CN(Cc1cnc2nc(N)nc(N)c2n1)c1ccc(C(=O)N[C@@H](CCC(=O)O)C(=O)O)cc1 [Methotrexate] | known to cross the blood-brain barrier | very low bioavailability | – | – | – | –
POLIGO ™_1 (chain 1 ATGATTCTGCCCTCC; chain 2 TACTAAGACGGGAGG; chemistry not given here; one strand is listed 3' to 5') | – | – | high fluorescence expression compared to the group administered only with methotrexate | higher on day 3 than on day 1 in all brain tissue regions | higher in the midbrain and cerebellum; also recorded: high in the midbrain and cerebellum | the fluorescence spread to the prefrontal cortex; also recorded: high even in the prefrontal cortex
